Experiment [1] has as its target interferon-induced transmembrane protein 3 (IFITM3), human, untagged (UniProt Q01628). As to the kind of experiment: co-immunoprecipitation (anti-HA IP, anti-IFITM3 immunoblot), IFITM3/HA band ratio. Conditions: mean of two co-IPs from independent transfections. For orientation: A western blot detects proteins with antibodies after separation by electrophoresis.
For experiment [2] the target is unchanged. Put plainly: proximity ligation assay (anti-IFITM3 and anti-HA, confocal microscopy). Conditions: HEK293T cells transfected with pCMV-IFITM3 (0.50 μg) and pBJ-97ZANef-HA WT or mutant (0.25 μg); mean of 6 to 12 cells per condition; parent: 20,209.
Setting [3] is: HEK293T cells cotransfected with pCMV-IFITM3 (0.50 μg) and pBJ-97ZA Nef-HA WT or mutant (0.25 μg), parent: 100.
Where [4] appears, read: HEK293T cells cotransfected with pCMV-IFITM3 (0.50 μg) and pBJ-97ZANef-HA WT or mutant (0.25 μg).

Chain of UniProt Q01628 (Q01628 whole entry): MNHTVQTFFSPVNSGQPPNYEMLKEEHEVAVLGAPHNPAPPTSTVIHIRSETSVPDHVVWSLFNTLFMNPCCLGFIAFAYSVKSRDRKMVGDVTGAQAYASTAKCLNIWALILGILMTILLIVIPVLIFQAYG

For the substance “97ZA013 Nef-HA, wild type (HIV-1 clade C primary isolate) E153K”, the percent of parent in experiment [1] (setting [3]) was determined as 73%. Turning to “97ZA013 Nef-HA, wild type (HIV-1 clade C primary isolate) G2A”, in experiment [2], the response (corrected total cell fluorescence) is 3000. Moreover, the percent of parent in experiment [1] (setting [4]) is 1%. Take “97ZA013 Nef-HA, wild type (HIV-1 clade C primary isolate) L165A; L166A”: the response (corrected total cell fluorescence) in experiment [2] worked out at 12000. For the same substance, in experiment [1] (setting [4]), the percent of parent was 87%.

“97ZA013 Nef-HA, wild type (HIV-1 clade C primary isolate) M20A”: in experiment [2], the response (corrected total cell fluorescence) stood at 17200. For the same substance, the percent of parent in experiment [1] (setting [4]) came to 124%. Regarding “97ZA013 Nef-HA, wild type (HIV-1 clade C primary isolate) M169V; Q171L”, the percent of parent in experiment [1] (setting [3]) worked out at 244%.

As for “97ZA013 Nef-HA, wild type (HIV-1 clade C primary isolate) N163T; C164S”, the percent of parent in experiment [1] (setting [3]) came out at 217%. In the case of “97ZA013 Nef-HA, wild type (HIV-1 clade C primary isolate) R17A; R19A; R21A; R22A”, in experiment [2], the response (corrected total cell fluorescence) amounted to 7580. The percent of parent in experiment [1] (setting [4]) amounted to 16%. “97ZA013 Nef-HA, wild type (HIV-1 clade C primary isolate) R192F; R193H”: in experiment [1] (setting [3]), the percent of parent is 188%. For the substance “97ZA013 Nef-HA, wild type (HIV-1 clade C primary isolate) S152D; E153K”, in experiment [1] (setting [3]), the percent of parent is 42%.

(Values after article PMC12487890.)
